Test results as given in paper PMC8138766, “Defining steps in RAVE-catalyzed V-ATPase assembly using purified RAVE and V-ATPase subcomplexes” (The Journal of Biological Chemistry, 2021).
Where “and” joins values, the source holds several entries; their conditions need not be identical. Equal values may be shown once.

Target: RAVE–V1 complex (yeast | yeast (endogenous), UniProt P47104 1-1357; Q03956 1-351; P52286 1-194; P16140 1-517; P32610 1-256; P22203 …, VMA1 intein (284-737) spliced out; Rav2 C-terminal FLAG and Skp1 C-terminal 6xGly-6xHis tags omitted; subunit C (Vma5) only substoichiometric, so omitted; V1 copy numbers (A3B3DE3FG3H) and RAVE 1:1:1)
Test: BLI; Octet RED384, 22 °C, PBS or TBSE with 0.5 mg/ml BSA; MBP-C (5 μg/ml) captured by anti-MBP antibody on anti-mouse IgG sensors; RAVE–V1 or RAVE in solution at varied concentrations, 2400 s association and 2400 s dissociation; global single-site fit
Details: both partners purified

- Kd: 13.6 nM and 18.1 nM
B1: maltose-binding protein (MBP)–tagged subunit C (natural protein, yeast, UniProt P31412 1-392, looked up)
chain: MATALYTANDFILISLPQNAQPVTAPGSKTDSWFNETLIGGRAFVSDFKIPEFKIGSLDTLIVESEELSKVDNQIGASIGKIIEILQGLNETSTNAYRTLPINNMPVPEYLENFQWQTRKFKLDKSIKDLITLISNESSQLDADVRATYANYNSAKTNLAAAERKKTGDLSVRSLHDIVKPEDFVLNSEHLTTVLVAVPKSLKSDFEKSYETLSKNVVPASASVIAEDAEYVLFNVHLFKKNVQEFTTAAREKKFIPREFNYSEELIDQLKKEHDSAASLEQSLRVQLVRLAKTAYVDVFINWFHIKALRVYVESVLRYGLPPHFNIKIIAVPPKNLSKCKSELIDAFGFLGGNAFMKDKKGKINKQDTSLHQYASLVDTEYEPFVMYIINL
notes: V-ATPase V1 subunit C (Vma5), yeast; MBP was not cleaved; also called MBP-C; expressed subunit C; source: E. coli Rosetta2, purified (amylose column)
